The text below walks through data of publication PMC7367873, “Dissecting the sequence determinants for dephosphorylation by the catalytic subunits of phosphatases PP1 and PP2A” (Nature Communications, 2020).

One assay relates to GFP-14-3-3β. Description: GFP-14-3-3β co-IP with LC-MS/MS, untreated GFP-14-3-3β versus GFP control (14-3-3 interactome). It counts as binding, human. The following applies: label-free quantification.
For assay [1], the system named is GFP-14-3-3β and its binding proteins. Nature of the assay: GFP-14-3-3β co-IP with LC-MS/MS label-free quantification, untreated versus PP1c-treated. Further details: species or system human. The following applies: label-free quantification.

B1: TRIM56 (protein, UniProt Q9BRZ2 1-755, looked up)
E3 ubiquitin-protein ligase …: MVSHGSSPSLLEALSSDFLACKICLEQLRAPKTLPCLHTYCQDCLAQLADGGRVRCPECRETVPVPPEGVASFKTNFFVNGLLDLVKARACGDLRAGKPACALCPLVGGTSTGGPATARCLDCADDLCQACADGHRCTRQTHTHRVVDLVGYRAGWYDEEARERQAAQCPQHPGEALRFLCQPCSQLLCRECRLDPHLDHPCLPLAEAVRARRPGLEGLLAGVDNNLVELEAARRVEKEALARLREQAARVGTQVEEAAEGVLRALLAQKQEVLGQLRAHVEAAEEAARERLAELEGREQVARAAAAFARRVLSLGREAEILSLEGAIAQRLRQLQGCPWAPGPAPCLLPQLELHPGLLDKNCHLLRLSFEEQQPQKDGGKDGAGTQGGEESQSRREDEPKTERQGGVQPQAGDGAQTPKEEKAQTTREEGAQTLEEDRAQTPHEDGGPQPHRGGRPNKKKKFKGRLKSISREPSPALGPNLDGSGLLPRPIFYCSFPTRMPGDKRSPRITGLCPFGPREILVADEQNRALKRFSLNGDYKGTVPVPEGCSPCSVAALQSAVAFSASARLYLINPNGEVQWRRALSLSQASHAVAALPSGDRVAVSVAGHVEVYNMEGSLATRFIPGGKASRGLRALVFLTTSPQGHFVGSDWQQNSVVICDGLGQVVGEYKGPGLHGCQPGSVSVDKKGYIFLTLREVNKVVILDPKGSLLGDFLTAYHGLEKPRVTTMVDGRYLVVSLSNGTIHIFRVRSPDS
For B1, the “Difference (log2), untreated vs GFP” value in the assay on GFP-14-3-3β (untreated vs GFP) was -0.02313 log2. Moreover, the “Difference (log2), PP1 vs untreated” value in assay [1] (PP1 vs untreated) was 0.8378 log2.

B2: SRP68 (protein, UniProt Q9UHB9 1-627, looked up)
Signal recognition particle …: MAAEKQVPGGGGGGGSGGGGGSGGGGSGGGRGAGGEENKENERPSAGSKANKEFGDSLSLEILQIIKESQQQHGLRHGDFQRYRGYCSRRQRRLRKTLNFKMGNRHKFTGKKVTEELLTDNRYLLLVLMDAERAWSYAMQLKQEANTEPRKRFHLLSRLRKAVKHAEELERLCESNRVDAKTKLEAQAYTAYLSGMLRFEHQEWKAAIEAFNKCKTIYEKLASAFTEEQAVLYNQRVEEISPNIRYCAYNIGDQSAINELMQMRLRSGGTEGLLAEKLEALITQTRAKQAATMSEVEWRGRTVPVKIDKVRIFLLGLADNEAAIVQAESEETKERLFESMLSECRDAIQVVREELKPDQKQRDYILEGEPGKVSNLQYLHSYLTYIKLSTAIKRNENMAKGLQRALLQQQPEDDSKRSPRPQDLIRLYDIILQNLVELLQLPGLEEDKAFQKEIGLKTLVFKAYRCFFIAQSYVLVKKWSEALVLYDRVLKYANEVNSDAGAFKNSLKDLPDVQELITQVRSEKCSLQAAAILDANDAHQTETSSSQVKDNKPLVERFETFCLDPSLVTKQANLVHFPPGFQPIPCKPLFFDLALNHVAFPPLEDKLEQKTKSGLTGYIKGIFGFRS
Consider B2, for which the “Difference (log2), untreated vs GFP” value in the assay on GFP-14-3-3β (untreated vs GFP) was determined as 0.06806 log2. In assay [1] (PP1 vs untreated), the “Difference (log2), PP1 vs untreated” value is 0.7891 log2.

B3: PGAM5 (protein, UniProt Q96HS1 1-289, looked up)
Serine/threonine-protein …: MAFRQALQLAACGLAGGSAAVLFSAVAVGKPRAGGDAEPRPAEPPAWAGGARPGPGVWDPNWDRREPLSLINVRKRNVESGEEELASKLDHYKAKATRHIFLIRHSQYHVDGSLEKDRTLTPLGREQAELTGLRLASLGLKFNKIVHSSMTRAIETTDIISRHLPGVCKVSTDLLREGAPIEPDPPVSHWKPEAVQYYEDGARIEAAFRNYIHRADARQEEDSYEIFICHANVIRYIVCRALQFPPEGWLRLSLNNGSITHLVIRPNGRVALRTLGDTGFMPPDKITRS
In the case of B3, in the assay on GFP-14-3-3β (log2 difference, pairwise comparison untreated vs GFP, 3 replicates each), the “Difference (log2), untreated vs GFP” value was -0.7531. For the same molecule, the “Difference (log2), PP1 vs untreated” value in assay [1] (log2 difference, pairwise comparison PP1 vs untreated, 3 replicates each) was found to be 2.342.
